Measured values taken from the supplement of paper PMC9732359.
± gives the uncertainty stated by the source.

Assay: protein stability index of a GFP-peptide fusion (yeast GPS) (PSI 1-4); higher = more stable; sorted into four equal gates, so the index is relative within each strain
How it was run: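 Tiled yeast protein peptides of 17 residues were each joined downstream of GFP, on plasmids that also express Cherry. The pooled library was maintained in yeast, and mid-log cultures in leucine-free medium were sorted into four equal gates on the GFP/Cherry ratio. Plasmids from every gate were amplified by PCR and sequenced on Illumina, with barcodes linking reads to strains. The protein stability index of a peptide is its gate-number-weighted read frequency summed over the gates.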

| Sequence | protein stability index (doa10∆) | protein stability index (pdr5∆) | protein stability index (san1∆) | protein stability index (ubr1∆) |
| --- | --- | --- | --- | --- |
| DKLEKVTHDCYRVTLES [RPC34] | 3.37 ± 0.16 | 3.3 ± 0.06 | 3.25 ± 0.075 | 3.12 ± 0.085 |
| YLLSIWVKKFKWAGIKT [CYT1] | 2.38 ± 0.16 | 1.57 ± 0.099 | 2.17 ± 0.098 | 2.29 ± 0.17 |
| IGEFNVSMYQNSSTSST [YDL088C/ASM4] | 3.61 ± 0.28 | 1.97 ± 0.13 |  | 2.17 ± 0.098 |
| YNDSATSGEAAALGMGL [RPN2] | 2.32 ± 0.096 | 2.45 ± 0.11 | 2.99 ± 0.078 | 2.43 ± 0.084 |
| KVSGVSLLALWKEKKEK [RPS23A] | 2.55 ± 0.22 | 1.59 ± 0.1 | 1.78 ± 0.1 | 1.77 ± 0.11 |
| SYVVPRLYLKDQTNHIE [ECM29] | 2.62 ± 0.076 | 1.83 ± 0.046 | 2.83 ± 0.056 | 2.15 ± 0.033 |
| LKAKNQEEEGELEHLTK [DSN1] | 3.42 ± 0.076 | 3.35 ± 0.066 | 3.31 ± 0.047 | 3.39 ± 0.047 |
| VDSISLHKIFYKVLKNN [YCG1] | 1.99 ± 0.047 | 2.32 ± 0.039 | 2.71 ± 0.037 | 2.3 ± 0.042 |
| VEIAFLFRAIYLYCLDN [YCG1] | 1.54 ± 0.065 | 1.3 ± 0.054 | 1.21 ± 0.11 | 1.2 ± 0.05 |
| LYQIWIVMVWLKENTYV [YDL116W/NUP84] | 1.85 ± 0.061 | 1.77 ± 0.062 | 2.11 ± 0.097 | 2.14 ± 0.046 |
| FSFGKSDAAKEPPGSNT [YOR098C/NUP1] |  | 3.58 ± 0.16 | 2.84 ± 0.13 | 2.68 ± 0.2 |
| ATDVEARAVQDNGESAF [RPL13A] | 3.16 ± 0.11 | 2.99 ± 0.088 | 1.56 ± 0.094 | 2.85 ± 0.094 |
| TRRFVNVTLVNGKRRMN [RPS30A] | 1.67 ± 0.055 | 1.51 ± 0.038 | 1.73 ± 0.084 | 2.37 ± 0.038 |
| DLKSLNVRDDMKPSDNI [SSN2] | 2.94 ± 0.22 | 2.59 ± 0.18 | 2.62 ± 0.16 | 2.57 ± 0.097 |
| KFDSRIRGILMASGSTT [PRP8] | 2.44 ± 0.084 | 2.18 ± 0.11 | 2.06 ± 0.12 | 2.19 ± 0.13 |
| SLTISLYASDYASYFPY [RPN7] | 1.42 ± 0.036 | 1.64 ± 0.035 | 1.6 ± 0.049 | 1.67 ± 0.028 |
| HTPMVNFESISARSSVH [SRB8] | 2.08 ± 0.043 | 1.97 ± 0.032 | 1.79 ± 0.051 | 2.12 ± 0.025 |
| ENSANSTVASALDTNGT [SIR4] | 3.08 ± 0.097 | 3.18 ± 0.073 | 2.79 ± 0.09 | 2.86 ± 0.069 |
| MTAQQAPKWYPSEDVAA [RPL6B] | 1.77 ± 0.11 | 1.7 ± 0.074 | 1.84 ± 0.091 | 1.71 ± 0.11 |
| DNDFIINDFKKIGRENE [POP5] | 3.33 ± 0.071 | 3.38 ± 0.072 | 3.3 ± 0.057 | 3.35 ± 0.047 |
| RRKDTSMVLFFVCLSCS [RPB9] | 1.3 ± 0.052 | 1.32 ± 0.07 | 1.4 ± 0.12 | 1.38 ± 0.039 |
| YITAKNNVVINFKDMSH [PRP8] | 2.26 ± 0.052 | 2.02 ± 0.047 | 2.42 ± 0.063 | 2.14 ± 0.043 |
| ETHPDNSNKQAVAILAD [BRR2] | 2.78 ± 0.053 | 2.93 ± 0.049 | 2.81 ± 0.045 | 2.98 ± 0.038 |
| ILTPESQLKKSKAQQKT [RPL7A] | 3.02 ± 0.078 | 3.02 ± 0.12 | 2.98 ± 0.12 | 2.98 ± 0.056 |
| NTMSAWVNMLLISSSGP [FAS2] | 1.99 ± 0.07 | 1.32 ± 0.051 | 1.37 ± 0.1 | 1.52 ± 0.043 |
| KEIYYTPDPSELAAKEE [FAS2] | 2.631 ± 0.023 | 2.748 ± 0.023 | 2.601 ± 0.024 | 2.531 ± 0.017 |

| Sequence | protein stability index (doa10∆) | protein stability index (pdr5∆) | protein stability index (san1∆) | protein stability index (ubr1∆) |
| --- | --- | --- | --- | --- |
| QQLNKQRQDFERVRLRP [SNF6] | 2.85 ± 0.062 | 2.73 ± 0.079 | 2.75 ± 0.069 | 2.79 ± 0.045 |
| YGDGNGKGDNDNGLGPL [SWI3] | 3.46 ± 0.15 | 3.13 ± 0.3 | 3.31 ± 0.073 | 3 ± 0.1 |
| FEYEGVQDIIGNGKLSE [RPN1] |  | 2.85 ± 0.18 | 3.21 ± 0.26 | 2.74 ± 0.1 |
| ELSIRDVTHTLGMLDDN [SMC4] | 3.13 ± 0.091 | 3.04 ± 0.082 | 3.22 ± 0.049 | 3.27 ± 0.097 |
| SRDLDISSSTQCLRFLK [POP6] | 2.46 ± 0.1 | 2.24 ± 0.05 | 2.7 ± 0.14 | 3.05 ± 0.061 |
| ATQSGGVRPFGVSLLIA [PRE8] | 1.29 ± 0.071 | 1.62 ± 0.071 | 1.4 ± 0.17 | 1.51 ± 0.064 |
| TINLDRFMKGRRSKQLI [RPC82] | 2.09 ± 0.1 | 2.64 ± 0.078 | 1.79 ± 0.17 | 2.74 ± 0.078 |
| MEEEQQRQERLRQQQQQ [RPN10] | 3.4 ± 0.17 | 2.86 ± 0.25 | 3.37 ± 0.066 | 3.39 ± 0.085 |
| TRLYDYEIRDIDQDIHG [SSN2] | 3.54 ± 0.11 | 3.55 ± 0.16 | 3.48 ± 0.094 | 3.49 ± 0.11 |
| PSEILHLILDKLNQKYD [GRR1] | 3.14 ± 0.096 | 2.48 ± 0.068 | 2.54 ± 0.19 | 2.46 ± 0.061 |
| RAIRSEKYGKQVYDLLK [BRR2] |  |  | 2.94 ± 0.18 | 3.26 ± 0.13 |
| ATPGRLIDSLENHLLVM [PRP28] | 2.66 ± 0.067 | 2.37 ± 0.05 | 2.06 ± 0.11 | 2.1 ± 0.06 |
| LSEEETLLVIRRLHKVL [SNF2] | 1.7 ± 0.086 | 2.22 ± 0.07 | 1.84 ± 0.11 | 2.21 ± 0.053 |
| EQDPYSNASQMGNTGSG [RPB3] | 2.7 ± 0.13 | 2.45 ± 0.14 | 2.21 ± 0.2 | 2.95 ± 0.1 |
| SKSESDSQIVTPGELVT [RRP4] | 3.07 ± 0.11 | 3.17 ± 0.066 | 2.88 ± 0.077 | 2.83 ± 0.066 |
| EFKIEQNNEQNPIDPFN [YDL116W/NUP84] | 2.96 ± 0.087 | 3.11 ± 0.087 | 3.05 ± 0.067 | 3.23 ± 0.061 |
| GIKVSLLGIFDDIFIPQ [RPC25] | 1.78 ± 0.077 | 1.73 ± 0.092 | 2 ± 0.18 | 1.77 ± 0.081 |
| LPDPKPLPLDLNVQVWH [ITC1] | 2.8 ± 0.064 | 2.72 ± 0.051 | 3.01 ± 0.063 | 2.55 ± 0.038 |
| LMATEYQDIEGGFEDVE [RPB2] | 3.43 ± 0.14 | 3.31 ± 0.11 | 3.49 ± 0.069 | 3.44 ± 0.099 |
| TSTPPPPPAPHNLHPQI [SNF5] | 3.2 ± 0.058 | 3.16 ± 0.048 | 3.08 ± 0.049 | 3.14 ± 0.039 |
| FFEMLISKSLTFSQESG [RRI2] | 2.12 ± 0.082 | 1.45 ± 0.059 | 1.25 ± 0.12 | 1.66 ± 0.13 |
| TISEKEQDILDLIAEQV [SSN2] | 3.08 ± 0.14 | 3.25 ± 0.15 | 3.05 ± 0.12 | 2.97 ± 0.13 |
| GLFQVLHNFESVAPTKQ [NUT1] | 2.99 ± 0.075 | 2.87 ± 0.075 | 2.75 ± 0.052 | 3.12 ± 0.035 |
| ALPDAVTIIEPKEEEPI [RPS3] | 2.93 ± 0.059 | 2.99 ± 0.065 | 3.06 ± 0.061 | 3.04 ± 0.058 |
| TTIKAIFDGNYGESDIH [YMR129W/POM152] | 3.23 ± 0.09 | 2.97 ± 0.14 | 3.58 ± 0.2 | 2.89 ± 0.12 |
